This is an account of results in paper PMC3913039.

In this experiment the target is recombinant 3x-FLAG-tagged human Sec61α, wild type (human) (UniProt P61619). The experiment in a line: co-IP; Sf21 microsomes with FLAG-Sec61α and Sec61γ solubilised with 1% Deoxy BigChap, anti-FLAG immunoprecipitation, immunoblot beside canine microsomes. (Immunoblotting shows a protein as a band on a membrane.)
Sequence of UniProt P61619 (P61619 whole entry): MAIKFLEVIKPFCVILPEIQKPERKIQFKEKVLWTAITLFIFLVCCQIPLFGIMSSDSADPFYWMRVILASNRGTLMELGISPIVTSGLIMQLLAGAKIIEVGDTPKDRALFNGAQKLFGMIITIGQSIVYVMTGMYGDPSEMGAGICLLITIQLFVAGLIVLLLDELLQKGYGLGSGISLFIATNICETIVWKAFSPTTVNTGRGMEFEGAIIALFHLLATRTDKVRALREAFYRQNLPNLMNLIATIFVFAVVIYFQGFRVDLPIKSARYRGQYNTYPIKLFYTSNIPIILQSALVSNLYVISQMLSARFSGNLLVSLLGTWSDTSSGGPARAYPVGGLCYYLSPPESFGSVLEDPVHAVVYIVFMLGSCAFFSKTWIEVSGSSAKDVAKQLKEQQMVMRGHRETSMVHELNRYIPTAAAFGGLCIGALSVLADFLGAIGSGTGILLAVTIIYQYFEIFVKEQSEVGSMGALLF

On to “recombinant untagged human Sec61γ (from UniProt P60059 1-68) (natural protein; other documents disagree on this pair)”, for which the stoichiometry N (usually the number of molecules, sites or subunits per partner or assembly) is 1.
